Data reported in patent US20210171647A1 (WUXI BIOLOGICS SHANGHAI, published 2021).
Substitutions are numbered along the chain they refer to.

Assays:
Assay in all cases: ELISA, antibody coated, OX40-ECD.His mutant supernatant; relative to silent alanine substitutions;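 further: captured OX40 mutant protein detected with HRP-labelled anti-His antibody, absorbance read-out, scaled to the mean signal of control mutants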
human OX40-ECD.His S118A = target: T1, human OX40-ECD.His S118A (human, UniProt P43489 29-214)
T1 construct: extracellular domain; not shown: C-terminal His-tag
T1 sequence (looked up): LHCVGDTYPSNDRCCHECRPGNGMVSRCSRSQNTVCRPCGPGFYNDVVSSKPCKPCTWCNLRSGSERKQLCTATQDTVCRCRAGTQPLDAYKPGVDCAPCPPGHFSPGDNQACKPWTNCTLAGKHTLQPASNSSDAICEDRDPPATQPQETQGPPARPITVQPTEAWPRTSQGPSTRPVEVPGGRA

human OX40-ECD.His A140G = target: T2, human OX40-ECD.His A140G (human, UniProt P43489 29-214)
T2 construct: extracellular domain; not shown: C-terminal His-tag
T2 sequence (looked up): T1 sequence (looked up) with A90S, A112G

human OX40-ECD.His M52A = target: T3, human OX40-ECD.His M52A (human, UniProt P43489 29-214)
T3 construct: extracellular domain; not shown: C-terminal His-tag
T3 sequence (looked up): T1 sequence (looked up) with M24A, A90S

human OX40-ECD.His L116A = target: T4, human OX40-ECD.His L116A (human, UniProt P43489 29-214)
T4 construct: extracellular domain; not shown: C-terminal His-tag
T4 sequence (looked up): T1 sequence (looked up) with L88A, A90S

human OX40-ECD.His T148A = target: T5, human OX40-ECD.His T148A (human, UniProt P43489 29-214)
T5 construct: extracellular domain; not shown: C-terminal His-tag
T5 sequence (looked up): T1 sequence (looked up) with A90S, T120A

human OX40-ECD.His R90A = target: T6, human OX40-ECD.His R90A (human, UniProt P43489 29-214)
T6 construct: extracellular domain; not shown: C-terminal His-tag
T6 sequence (looked up): T1 sequence (looked up) with R62A, A90S

human OX40-ECD.His A164G = target: T7, human OX40-ECD.His A164G (human, UniProt P43489 29-214)
T7 construct: extracellular domain; not shown: C-terminal His-tag
T7 sequence (looked up): T1 sequence (looked up) with A90S, A136G

human OX40-ECD.His D74A = target: T8, human OX40-ECD.His D74A (human, UniProt P43489 29-214)
T8 construct: extracellular domain; not shown: C-terminal His-tag
T8 sequence (looked up): T1 sequence (looked up) with D46A, A90S

human OX40-ECD.His P143A = target: T9, human OX40-ECD.His P143A (human, UniProt P43489 29-214)
T9 construct: extracellular domain; not shown: C-terminal His-tag
T9 sequence (looked up): T1 sequence (looked up) with A90S, P115A

human OX40-ECD.His K96A = target: T10, human OX40-ECD.His K96A (human, UniProt P43489 29-214)
T10 construct: extracellular domain; not shown: C-terminal His-tag
T10 sequence (looked up): T1 sequence (looked up) with K68A, A90S

B1: 1.134.9-u1-IgG1L (antibody, V domains shown)
VH: QVQLQESGPGLVKPSGTLSLTCAVSGGSISSYNWWSWVRQPPGKGLEWIGEIYHGGNTNYNPSLKSRVTMSVDNSKNQFSLKLSSVTAADTAVYYCARAPGDWGGSPYFDFWGQGTLVTVSS
VL: SSELTQDPAVSVALGQTVRITCQGDNLRTYYASWYQQKPGQAPILLIYGRNKRPSGIPDRFSGSSSGNTASLTITGAQAEDEAAYYCNSRDSSGNPVVFGGGTKLTVL
notes: fully human IgG1, lambda
Human OX40-ECD.His S118A
  Fold Change: 0.969
Human OX40-ECD.His A140G
  Fold Change: 0.969
Human OX40-ECD.His M52A
  Fold Change: 0.977
Human OX40-ECD.His L116A
  Fold Change: 0.982
Human OX40-ECD.His T148A
  Fold Change: 1
Human OX40-ECD.His R90A
  Fold Change: 1.01
Human OX40-ECD.His A164G
  Fold Change: 0.47
Human OX40-ECD.His D74A
  Fold Change: 0.796
Human OX40-ECD.His P143A
  Fold Change: 0.92
Human OX40-ECD.His K96A
  Fold Change: 0.949
